Consider three molecules from patent US20220282217A1, “COMPOSITIONS AND METHODS FOR PREPARING T CELL COMPOSITIONS AND USES THEREOF” (priority 2019, published 2022).

Conditions in all cases: remark: other sources report otherwise
The target in assay [1] is HLA-A02:01 class I MHC molecule (human). Nature of the assay: pMHC-I dissociation at 37 C, 125I-labeled b2m, scintillation counts.
Assay [2] deals with HLA-B07:02 class I MHC molecule (human). The assay is described as above.
Assay [3] concerns the target HLA-A02:01 class I MHC molecule (human). Nature of the assay: competition with a radiolabeled reference peptide for purified MHC I, gel filtration; 'Affinity (nM)'. (In general: In gel filtration, larger molecules generally elute earlier.)
The target of assay [4] is HLA-B07:02 class I MHC molecule (human). The description is as above.
Assay [5] concerns the target T1, HLA-B07.02 class I MHC molecule (prepared complex) (human). Put plainly: dissociation of peptide-MHC-I complex at 37 C, 125I-labelled b2m, scintillation.
For assay [6], the target named is T2, HLA-A02.01 class I MHC molecule (prepared complex) (human). The assay is described as above.
In assay [7] the target is T1, HLA-B07.02 class I MHC molecule …. Put plainly: displacement of radiolabeled reference peptide from class I MHC, gel filtration; 'Affinity (nM)'.
In assay [8] the target is T2, HLA-A02.01 class I MHC molecule …. The assay is described as above.
Assay [9] deals with HLA-B07.02 (human). Nature of the assay: pMHC-I dissociation half-life, 125I-b2m.
The target in assay [10] is HLA-B07.02 (human). Put plainly: competition with radiolabeled reference peptide, purified MHC I.

B1: BTK_C481S peptide … (peptide)
peptide: SLLNYLREM
Turning to B1, the Stability (half-life (hr.)) in assay [1] is 3.04 h; in assay [2] it was 0 h. The IC50 – broadly, the concentration at which inhibition is half-maximal – was found to be 67.7 nM in assay [3] and 866 nM in assay [4].

B2: EGFR_T790M peptide … (peptide)
peptide: MQLMPFGCL
Turning to B2, the values for the Stability (half-life (hr.)) in [5] and in [6] were 0 h and 0.368 h, respectively. Moreover, the IC50 in assay [7] was 1590 nM; in assay [8], 116 nM.

B3: … (peptide)
peptide: LPRKPTRAA
B3 returned a Stability (T1/2 (h)) in assay [9] of 5.5 h. In assay [10], this molecule registered an IC50 of 8 nM.
